Data as given in PMC11098746 (2024).
No end group written: not given here.

B1: ADP329 (protein)
chain: MAPPGSSTVFLLALTIIASTWALTPTHYLTKHDVERLKASLDRPFTNLESAFYSIVGLSSLGAQVPDAKKACTYIRSNLDPSNVDSLFYAAQASQALSGCEISISNETKDLLLAAVSEDSSVTQIYHAVAALSGFGLPLASQEALSALTARLSKEETVLATVQALQTASHLSQQADLRSIVEEIEDLVARLDELGGVYLQFEEGLETTALFVAATYKLMDHVGTEPSIKEDQVIQLMNAIFSKKNFESLSEAFSVASAAAVLSHNRYHVPVVVVPEGSASDTHEQAILRLQVTNVLSQPLTQATVKLEHAKSVASRATVLQKTSFTPVGDVFELNFMNVKFSSGYYDFLVEVEGDNRYIANTVELRVKISTEVGITNVDLSTVDKDQSIAPKTTRVTYPAKAKGTFIADSHQNFALFFQLVDVNTGAELTPHQTFVRLHNQKTGQEVVFVAEPDNKNVYKFELDTSERKIEFDSASGTYTLYLIIGDATLKNPILWNVADVVIKFPEEEAPSTVLSQNLFTPKQEIQHLFREPEKRPPTV
modifications: bait human Fc-tagged dimer
B2: ADP101 (protein)
chain: MWSTRSPNSTAWPLSLEPDPGMASASTTMHTTTIAEPDPGMSGWPDGRMETSTPTIMD
modifications: also: human Fc-tagged dimer
B3: ADP156 (protein)
chain: MAILSFLPVLATESDWADCKSPQPWGHMLLWTAVLFLAPVAGTPAAPPKAVLKLEPQWINVLQEDSVTLTCRGTHSPESDSIQWFHNGNLIPTHTQPSYRFKANNNDSGEYTCQTGQTSLSDPVHLTVLSEWLVLQTPHLEFQEGETIVLRCHSWKDKPLVKVTFFQNGKSKKFSRSDPNFSIPQANHSHSGDYHCTGNIGYTLYSSKPVTITVQAPSSSPM
modifications: bait human Fc-tagged dimer
B4: ADP389 (protein)
chain: PSSLSQEQSEQDAIYQNLTQLKAAVGELSEKSKLQEIYQELTQLKAAVGELPEKSKLQEIYQELTRLKAAVGELPEKSKLQEIYQELTRLKAAVGELPEKSKLQEIYQELTRLKAAVGELPEKSKLQEIYQELTELKAAVGELPEKSKLQEIYQELTQLKAAVGELPDQSKQQQIYQELTDLKTAFERLCRHCPKDWTFFQGNCYFMSNSQRNWHDSVTACQEVRAQLVVIKTAEEQNFLQLQTSRSNRFSWMGLSDLNQEGTWQWVDGSPLSPSFQRYWNSGEPNNSGNEDCAEFSGSGWNDNRCDVDNYWICKKPAACFRDE
modifications: bait human Fc-tagged dimer
B5: ADP365 (protein)
chain: MALGSPGLLFLLFSSLRADTQEKEVRAMVGSDVELSCACPEGSRFDLNDVYVYWQTSESKTVVTYHIPQNSSLENVDSRYRNRALMSPAGMLRGDFSLRLFNVTPQDEQKFHCLVLSQSLGFQEVLSVEVTLHVAANFSVPVVSAPHSPSQDELTFTCTSINGYPRPNVYWINKTDNSLLDQALQNDTVFLNMRGLYDVVSVLRIARTPSVNIGCCIENVLLQQNLTVGSQTGNDIGERDKITENPVSTG
modifications: bait human Fc-tagged dimer
B6: ADP348 (protein)
chain: MAASAGAGAVIAAPDSRRWLWSVLAAALGLLTAGVSALEVYTPKEIFVANGTQGKLTCKFKSTSTTGGLTSVSWSFQPEGADTTVSFFHYSQGQVYLGNYPPFKDRISWAGDLDKKDASINIENMQFIHNGTYICDVKNPPDIVVQPGHIRLYVVEKENLPVFP
modifications: bait human Fc-tagged dimer
B7: ADP150 (protein)
chain: MALQLWALTLLGLLGAGASLRPRKLDFFRSEKELNHLAVDEASGVVYLGAVNALYQLDAKLQLEQQVATGPALDNKKCTPPIEASQCHEAEMTDNVNQLLLLDPPRKRLVECGSLFKGICALRALSNISLRLFYEDGSGEKSFVASNDEGVATVGLVSSTGPGGDRVLFVGKGNGPHDNGIIVSTRLLDRTDSREAFEAYTDHATYKAGYLSTNTQQFVAAFEDGPYVFFVFNQQDKHPARNRTLLARMCREDPNYYSYLEMDLQCRDPDIHAAAFGTCLAASVAAPGSGRVLYAVFSRDSRSSGGPGAGLCLFPLDKVHAKMEANRNACYTGTREARDIFYKPFHGDIQCGGHAPGSSKSFPCGSEHLPYPLGSRDGLRGTAVLQRGGLNLTAVTVAAENNHTVAFLGTSDGRILKVYLTPDGTSSEYDSILVEINKRVKRDLVLSGDLGSLYAMTQDKVFRLPVQECLSYPTCTQCRDSQDPYCGWCVVEGRCTRKAECPRAEEASHWLWSRSKSCVAVTSAQPQNMSRRAQGEVQLTVSPLPALSEEDELLCLFGESPPHPARVEGEAVICNSPSSIPVTPPGQDHVAVTIQLLLRRGNIFLTSYQYPFYDCRQAMSLEENLPCISCVSNRWTCQWDLRYHECREASPNPEDGIVRAHMEDSCPQFLGPSPLVIPMNHETDVNFQGKNLDTVKGSSLHVGSDLLKFMEPVTMQESGTFAFRTPKLSHDANETLPLHLYVKSYGKNIDSKLHVTLYNCSFGRSDCSLCRAANPDYRCAWCGGQSRCVYEALCNTTSECPPPVITRIQPETGPLGGGIRITILGSNLGVQAGDIQRISVAGRNCSFQPERYSVSTRIVCVIEAAETPFTGGVEVDVFGKLGRSPPNVQFTFQQPKPLSVEPQQGPQAGGTTLTIHGTHLDTGSQEDVRVTLNGVPCKVTKFGAQLQCVTGPQATRGQMLLEVSYGGSPVPNPGIFFTYRENPVLRAFEPLRSFASGGRSINVTGQGFSLIQRFAMVVIAEPLQSWQPPREAESLQPMTVVGTDYVFHNDTKVVFLSPAVPEEPEAYNLTVLIEMDGHRALLRTEAGAFEYVPDPTFENFTGGVKKQVNKLIHARGTNLNKAMTLQEAEAFVGAERCTMKTLTETDLYCEPPEVQPPPKRRQKRDTTHNLPEFIVKFGSREWVLGRVEYDTRVSDVP
modifications: bait human Fc-tagged dimer
B8: ADP288 (protein)
chain: MDHSHHMGMSYMDSNSTMQPSHHHPTTSASHSHGGGDSSMMMMPMTFYFGFKNVELLFSGL
modifications: also: human Fc-tagged dimer
B9: ADP102 (protein)
chain: MARGAALALLLFGLLGVLVAAPDGGFDLSDALPDNENKKPTAIPKKPSAGDDFDLGDAVVDGENDDPRPPNPPKPMPNPNPNHPSSSGSFSDADLADGVSGGEGKGGSDGGGSHRKEGEEADAP
modifications: bait human Fc-tagged dimer
B10: ADP338 (protein)
chain: MAPRAARAPATLLLALGAVLWPAAGAWELTILHTNDVHSRLEQTSEDSSKCVNASRCMGGVARLFTKVQQIRRAEPNVLLLDAGDQYQGTIWFTVYKGAEVAHFMNALRYDAMALGNHEFDNGVEGLIEPLLKEAKFPILSANIKAKGPLASQISGLYLPYKVLPVGDEVVGIVGYTSKETPFLSNPGTNLVFEDEITALQPEVDKLKTLNVNKIIALGHSGFEMDKLIAQKVRGVDVVVGGHSNTFLYTGNPPSKEVPAGKYPFIVTSDDGRKVPVVQAYAFGKYLGYLKIEFDERGNVISSHGNPILLNSSIPEDPSIKADINKWRIKLDNYSTQELGKTIVYLDGSSQSCRFRECNMGNLICDAMINNNLRHTDEMFWNHVSMCILNGGGIRSPIDERNNGTITWENLAAVLPFGGTFDLVQLKGSTLKKAFEHSVHRYGQSTGEFLQVGGIHVVYDLSRKPGDRVVKLDVLCTKCRVPSYDPLKMDEVYKVILPNFLANGGDGFQMIKDELLRHDSGDQDINVVSTYISKMKVIYPAVEGRIKFSTGS
modifications: bait human Fc-tagged dimer
B11: ADP390 (protein)
chain: GTDDATADSRKTYTLTDYLKNTYRLKLYSLRWISDHEYLYKQENNILVFNAEYGNSSVFLENSTFDEFGHSINDYSISPDGQFILLEYNYVKQWRHSYTASYDIYDLNKRQLITEERIPNNTQWVTWSPVGHKLAYVWNNDIYVKIEPNLPSYRITWTGKEDIIYNGITDWVYEEEVFSAYSALWWSPNGTFLAYAQFNDTEVPLIEYSFYSDESLQYPKTVRVPYPKAGAVNPTVKFFVVNTDSLSSVTNATSIQITAPASMLIGDHYLCDVTWATQERISLQWLRRIQNYSVMDICDYDESSGRWNCLVARQHIEMSTTGWVGRFRPSEPHFTLDGNSFYKIISNEEGYRHICYFQIDKKDCTFITKGTWEVIGIEALTSDYLYYISNEYKGMPGGRNLYKIQLSDYTKVTCLSCELNPERCQYYSVSFSKEAKYYQLRCSGPGLPLYTLHSSVNDKGLRVLEDNSALDKMLQNVQMPSKKLDFIILNETKFWYQMILPPHFDKSKKYPLLLDVYAGPCSQKADTVFRLNWATYLASTENIIVASFDGRGSGYQGDKIMHAINRRLGTFEVEDQIEAARQFSKMGFVDNKRIAIWGWSYGGYVTSMVLGSGSGVFKCGIAVAPVSRWEYYDSVYTERYMGLPTPEDNLDHYRNSTVMSRAENFKQVEYLLIHGTADDNVHFQQSAQISKALVDVGVDFQAMWYTDEDHGIASSTAHQHIYTHMSHFIKQCFSLP
modifications: bait human Fc-tagged dimer
B12: ADP366 (protein)
chain: MESKGASSCRLLFCLLISATVFRPGLGWYTVNSAYGDTIIIPCRLDVPQNLMFGKWKYEKPDGSPVFIAFRSSTKKSVQYDDVPEYKDRLNLSENYTLSISNARISDEKRFVCMLVTEDNVFEAPTIVKVFKQPSKPEIVSKALFLETEQLKKLGDCISEDSYPDGNITWYRNGKVLHPLEGAVVIIFKKEMDPVTQLYTMTSTLEYKTTKADIQMPFTCSVTYYGPSGQKTIHSEQAVFDIYYPTEQVTIQVLPPKNAIKEGDNITLKCLGNGNPPPEEFLFYLPGQPEGIRSSNTYTLTDVRRNATGDYKCSLIDKKSMIASTAITVHYLDLSLNPSGEVTRQIGDALPVSCTISASRNATVVWMKDNIRLRSSPSFSSLHYQDAGNYVCETALQEVEGLKKRESLTLIVEGKPQIKMTKKTDPSGLSKTIICHVEGFPKPAIQWTITGSGSVINQTEESPYINGRYYSKIIISPEENVTLTCTAENQLERTVNSLNVSAISIPEHDEADEISDENREKVNDQAK
modifications: bait human Fc-tagged dimer
B13: ADP396 (protein)
chain: PSLIKQQVLKNVRIDPSSLSFNMWKEIPIPFYLSVYFFDVMNPSEILKGEKPQVRERGPYVYREFRHKSNITFNNNDTVSFLEYRTFQFQPSKSHGSESDYIVMPNILVLGAAVMMENKPMTLKLIMTLAFTTLGERAFMNRTVGEIMWGYKDPLVNLINKYFPGMFPFKDKFGLFAELNNSDSGLFTVFTGVQNISRIHLVDKWNGLSKVDFWHSDQCNMINGTSGQMWPPFMTPESSLEFYSPEACRSMKLMYKESGVFEGIPTYRFVAPKTLFANGSIYPPNEGFCPCLESGIQNVSTCRFSAPLFLSHPHFLNADPVLAEAVTGLHPNQEAHSLFLDIHPVTGIPMNCSVKLQLSLYMKSVAGIGQTGKIEPVVLPLLWFAESGAMEGETLHTFYTQLVLMPKVMHY
modifications: bait human Fc-tagged dimer
B14: ADP301 (protein)
chain: MAKLIALTLLGMGLALFRNHQSSYQTRLNALREVQPVELPNCNLVKGIETGSEDLEILPNGLAFISSGLKYPGIKSFNPNSPGKILLMDLNEEDPTVLELGITGSKFDVSSFNPHGISTFTDEDNAMYLLVVNHPDAKSTVELFKFQEEEKSLLHLKTIRHKLLPNLNDIVAVGPEHFYGTNDHYFLDPYLQSWEMYLGLAWSYVVYYSPSEVRVVAEGFDFANGINISPDGKYVYIAELLAHKIHVYEKHANWTLTPLKSLDFNTLVDNISVDPETGDLWVGCHPNGMKIFFYDSENPPASEVLRIQNILTEEPKVTQVYAENGTVLQGSTVASVYKGKLLIGTVFHKALYCEL
modifications: bait human Fc-tagged dimer

These binders were tested against Circumsporozoite protein (CSP) (Plasmodium falciparum (isolate 3D7), UniProt Q7K740) (assay: AVEXIS screen signal:noise (double-corrected)).
Circumsporozoite protein (CSP), sequence (Q7K740 19-374): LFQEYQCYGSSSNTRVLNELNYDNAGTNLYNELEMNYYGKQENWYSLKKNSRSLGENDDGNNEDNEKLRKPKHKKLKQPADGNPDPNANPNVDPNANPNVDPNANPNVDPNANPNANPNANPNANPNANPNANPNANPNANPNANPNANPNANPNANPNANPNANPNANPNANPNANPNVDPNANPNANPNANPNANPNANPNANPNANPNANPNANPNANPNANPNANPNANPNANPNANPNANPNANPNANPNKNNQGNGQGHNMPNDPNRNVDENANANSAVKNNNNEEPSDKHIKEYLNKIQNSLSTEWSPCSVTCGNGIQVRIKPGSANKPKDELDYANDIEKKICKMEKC

Point of comparison: B7, binding score 0.742. Against it:
- B1 — higher, 0.882
- B2 — higher, 1.1
- B3 — higher, 1.12
- B4 — lower, 0.72
- B5 — higher, 2.12
- B6 — lower, 0.706
- B8 — lower, 0.576
- B9 — higher, 0.919
- B10 — higher, 1.27
- B11 — higher, 0.756
- B12 — higher, 3.25
- B13 — higher, 2.67
- B14 — higher, 1.58
